Publication PMC5036187 (Scientific Reports, 2016)

Biological target: T1, Glypican-3 (GPC3) on G1 cells (Homo sapiens, UniProt P51654)
T1 construct: also called GPC3+ cells (G1)
Assay: flow cytometry on cells
Settings: one partner purified

T1 sequence (P51654 25-580): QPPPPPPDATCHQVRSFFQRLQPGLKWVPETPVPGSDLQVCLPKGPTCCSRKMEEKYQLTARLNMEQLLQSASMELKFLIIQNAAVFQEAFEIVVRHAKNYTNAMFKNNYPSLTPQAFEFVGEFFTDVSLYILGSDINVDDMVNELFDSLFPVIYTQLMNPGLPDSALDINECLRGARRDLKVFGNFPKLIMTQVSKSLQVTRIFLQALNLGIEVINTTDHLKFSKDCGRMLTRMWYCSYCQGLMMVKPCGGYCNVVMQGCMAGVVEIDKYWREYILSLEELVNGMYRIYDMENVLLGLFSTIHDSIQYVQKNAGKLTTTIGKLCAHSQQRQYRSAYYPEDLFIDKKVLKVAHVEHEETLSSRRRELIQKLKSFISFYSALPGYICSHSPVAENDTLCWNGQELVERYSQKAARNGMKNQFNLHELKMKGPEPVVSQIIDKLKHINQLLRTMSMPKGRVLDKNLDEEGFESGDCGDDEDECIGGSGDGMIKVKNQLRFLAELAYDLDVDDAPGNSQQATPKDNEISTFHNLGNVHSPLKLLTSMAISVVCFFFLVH

Row | Binder | EC50 [nM]
1 | humanized YP7 antibody, IgG format (human IgG1 kappa) (antibody, V domains shown, also called hYP7; hYP7 IgG) VH: EVQLVESGGGLVQPGGSLRLSCAASGFTFNKNAMNWVRQAPGKGLEWVGRIRNKTNNYATYYADSVKARFTISRDDSKNSLYLQMNSLKTEDTAVYYCVAGNSFAYWGQGTLVTVS VL: not shown | 0.7
2 | humanized YP9.1b antibody, IgG format (human IgG1 kappa) (antibody, V domains shown, also called hYP9.1b; hYP9.1b IgG) VH: EVQLVESGGGLVQPGGSLRLSCAASGFNFNTNAMNWVRQAPGKGLEWVGRVRNKTNNYATYYADSVKDRFTISRDDSKNSLYLQMNSLKTEDTAVYYCVAGNSFAYWGQGTLVTVS VL: not shown | 0.4
